{"source": "the nanobody polyreactivity screen of Harvey et al. (2022)"}
{"assay": "yeast display, Sf9 membrane polyspecificity reagent, FACS + sequencing; frameworks hold sequencing errors", "summary_of_the_method": "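Nanobodies from a synthetic yeast display library (Saccharomyces cerevisiae BJ5465), induced 36–48 hours with galactose, were stained 1 hour at 4 °C with 10% biotinylated, detergent-solubilized Sf9 membrane reagent, enriched on streptavidin microbeads, then FACS-sorted. Anti-HA (expression) and streptavidin (reagent binding) fluorescence set low and high (top ~1%) gates. Polyreactivity labels come from the gate of origin. Genes were colony-PCR amplified, MiSeq 2 × 250 sequenced and filtered by CDR length.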"}
{"sequence": "QVQLVESGGGLVQAGGRLRLSCAASGSTFDYYTMGGYRQAPGKERELVAGITSGGSTNYADSVKGRFTISRDNAKNTVYLQMNSLKPADTAVYYCAARVSKYYKPYGYWGQGTQVTVSS", "polyreactivity (PSR sort gate)": "high polyreactivity"}
{"sequence": "QFQLVESGGRLVQAGGSLRLSCAASGFIFWYNAMGWYRQAPGKEREFVAAISSGGSTTYADSVKGRFTISRDNAKNTVYLQMNSLKPEDTAVSYCAAGSYDYDYWGQGTQVTVSS", "polyreactivity (PSR sort gate)": "low polyreactivity"}
{"sequence": "QVQLVESGGGLVQAGGSLRLSCAASGLTFIHYSMGWYRQAPGKEREFVAAISTNSGSTYYADSVKGRFTISRDNAKNTVYLQMNSLKPEDTAVYYCAARGLRWRIDGEYWGQGTQVTVSS", "polyreactivity (PSR sort gate)": "high polyreactivity"}
{"sequence": "QVQLVESGGGLDQAGGSLRLSCAASGFIFRAYAMGLYRQAPGKERELVAAISWGGGSTYYADSVKGRFTISRDNAKNTVYLQMNSLKPEDTAVYYCAAEYEAYAYEYWGQGTQVTVSS", "polyreactivity (PSR sort gate)": "high polyreactivity"}
{"sequence": "QVQLVESGGGLVQAGGSLRLSCAASGRTFRYYAMGWYRQAPGKERELVAAISSSGDRTYYADSVKGRFTISRDNAKKTVYLQMNSLKPEDTAVYYCAADRGARGDYWGQGTQVTVSS", "polyreactivity (PSR sort gate)": "high polyreactivity"}
{"sequence": "QVQLVESGGGLVQAGGSLRLSCAASGSIFPFYALGLYSQAPGTDRELVAGISNGDSPNYADSVKGRFTIARDNAKNSVYLQLNSLKPEDTGVYYCATDLPGGRYYGPYDYWGQGTQGTVSS", "polyreactivity (PSR sort gate)": "low polyreactivity"}
{"sequence": "QVQLVESGGGLVQAGGSLRLSCAASGSIFRYYAMGWYRQAPGKERELVASISSGAGSTYYADSVKGRFTISRDNAKNTVYLQMNSLKPEDTAVYYCAARPGYSAFYYWGQGTQVTVSS", "polyreactivity (PSR sort gate)": "high polyreactivity"}
{"sequence": "QVQLVESGGGIVQAGGSLRLSCAASGFTFYYNAMGWYRQAPGKERELVAAISYRGGSTYYADSVKGRFTISRDNAKNTVYFQMNSLKPEDTAVYYCATRDPAFYRRYDYWGQATQVTVSS", "polyreactivity (PSR sort gate)": "high polyreactivity"}
{"sequence": "QVQLVESGGGLVQAGGSLRLSCDASGSTFGYYTMVWYRPSPGKERELVAAISSSGGSTYYADSVKGRFTISRDNAKNTVYLQMYSLKPEDTAVYYCNAEYGFYRAGSRGEYWGQGTQVTVSS", "polyreactivity (PSR sort gate)": "low polyreactivity"}
{"sequence": "QVQLVESGGGLVQAGGSLRLSCAASGSILRSYAMGWYRQAPGKERELVAAISSSGGSTYYADSVKGRFTISRDNAKNTVYLQMNSLKPEDTAVYYCAAATSRRFDYWGQGTQVTVSS", "polyreactivity (PSR sort gate)": "high polyreactivity"}
{"sequence": "QVQLVESGGGLVQAGGSLRLSCAASGFIFYSYVMGWSRQAPGKERELVAAISRSGGSTYYADSVKGRFTISRDNAKNTVYLQMNSLKPEDTAVYYCAVDGISGTSYGEGDEYWGQGTQVTVSS", "polyreactivity (PSR sort gate)": "high polyreactivity"}
{"sequence": "QVQLVESGGGLVQAGGSLRLSCAASGRTSSIYTMGWYRQAPGKERELVAAINSGGRTYYADSVKGRFTISRDNAKNTVYLQMNSLKPEDTAVYYCAARRSTYYWGGVTYTYYWGQGTQVTVSS", "polyreactivity (PSR sort gate)": "high polyreactivity"}
{"sequence": "QVQLVESGGGLVQAGGSLRLSCAASGFIFTFYAMGWYRQAPGKEREFVASIDWGDGSTYYADSVKGRFTISRDNAKNTVYLQMNSLKPEDTAVYYCAHDYDGYVWDTEYDYWGQGTQVTVSS", "polyreactivity (PSR sort gate)": "low polyreactivity"}
{"sequence": "QVQLVESGGGIVQAGGSLRLSCAASGSISFLYTMGWYRQAPGKERELVAAITGSTASTYYADSVKGRFTISRDNAKNTVYLQMNSLKPEDTAVYYCAAYWYAEGYWVSRDYWGQGTQVTVSS", "polyreactivity (PSR sort gate)": "low polyreactivity"}
{"sequence": "QVQLVESGGGLVQAGGSLRLSCAASGRTFASNAMGWYRQAPGKERELVAAISVTGGRTYYADSVKGRFTISRDNAKNTVYLQMNRLKPEDTAVYYCAKDLTLFSGPFPEFGYWGQGTQVTVSS", "polyreactivity (PSR sort gate)": "low polyreactivity"}
{"sequence": "QVQLVESGGGLVQAGGSLRFSCAASGRTFPSKTMGLYRQAPGKERELVAAISKNGGSTYYADSVKGRFTISRDNAKNTVYLQMNSLKPEDTAVYYCNRVRYPRVDYWGQGTQVTVSS", "polyreactivity (PSR sort gate)": "high polyreactivity"}
{"sequence": "QVQLVESGGGLVQAGGSLRLSCAASGGIFRYYAMGWYRQAPGKERELVAAISKRGGSTYYADSVKGRFTISRDNAKNTVYLQMNSLKPEDTAVYYCAAEGYYGSSYGYWGQGTQVTVSS", "polyreactivity (PSR sort gate)": "high polyreactivity"}
{"sequence": "QVQLVESGGGIVQAGGSHRLSCAASGRTFRYNAMGWYRQAPGKERELVAAISGRGSSTYYADSVKGRFTISRDNAKNTVYLQMNSLKPEDTAVYYCAALPASVRRPGWHDYWGQGTQVTVSS", "polyreactivity (PSR sort gate)": "high polyreactivity"}
{"sequence": "QVQLVESGGGLVQAGGSLRLSCAASGSIFYRNAMGWYRQAPGKERELVAAISWRGGSTYYADSVKGRFTISRDNAKNTVFLQMNSLKPEDTAVYYCAAAQRVNHVWYDYWGQGTQVTVSS", "polyreactivity (PSR sort gate)": "low polyreactivity"}
{"sequence": "QVQLVESGGGLVQAGGTLRLSCAASGRTFNTYAMGWYRLAPGKERELVAAITVPGGSTYYADSVKGRFTLSRDNAKNTVYLQMNSLKPADTAVYYCAAERPPDGYLVVGYVSTQYYYWGQGTQVTVSS", "polyreactivity (PSR sort gate)": "low polyreactivity"}
{"sequence": "QVQLVESGGGLFQAGGSLRLICAASGFIFGWYDMGWYRQAPGKERELVAAIDSGGSTNYADSVKGRFTISRDNAKYTVYLQMNSLKPEDTAVYYCAADHHDVWTEYYYWGHGTQVTVSS", "polyreactivity (PSR sort gate)": "low polyreactivity"}
{"sequence": "QVQLVESGGGLVQAGGSLRLSCAASGRTFQGNTMGWYRQAPGKEREFVAAMSSRGGSTYYADSVKGRFTISRDNAKNTVYLQMNRLKPEDTAVYYCDARFSHGYDYWGQGTQVTVSS", "polyreactivity (PSR sort gate)": "high polyreactivity"}
{"sequence": "QVQLVESGGGLVQAGGSLRLSSAASGRTFAYYAMGWYRQAPGKERELVAAISSAGRTYYADSVKGRFTISRDNAKNTVYLQMNSLKTEDTAVYYCAAEWYYYVIWLYEYWGQGTQVTVSS", "polyreactivity (PSR sort gate)": "high polyreactivity"}
{"sequence": "QVQLQESGGGLVQAGGSLRKSCAASGSVSYQEAMGWYRQAPGKERELVATISFGANTNYADSVKGRFTISRDNAKNTVYLQMNSLKPEDTAVYYCAAESLFDDYYGYWGQGTQVTVSS", "polyreactivity (PSR sort gate)": "low polyreactivity"}
{"sequence": "QVQLVESGGGLVQAGGSLRLSCAASGFTFHYYGMGWYRQAPGKERELVAAINWSGSSTYYADSVKGRFTISRDNATNTVYLQMNSLKPEDSAVYYCAAEKRKLFQGVARYRYEYWGQGTQVTVSS", "polyreactivity (PSR sort gate)": "low polyreactivity"}
{"sequence": "QVQLQECGGGLVQEGGSLRLSCAASGTYSNSVKWLYCQAPGKEREFVATIGVGGSTNYADSVKGRFTISRDIAKNSVYLQMNSLKPDDTAVYHCSAYGAASNFHYYRGQGTQVTVSS", "polyreactivity (PSR sort gate)": "low polyreactivity"}
{"sequence": "QVQLVESGGGLVQAGGSLRLSCAASGSLFYFYAMGWYRQAPGKERELVAAISSGGSTYYADSVKGRFTISRDNAKNTVYLQMNSLKPEDTEVYYCAADSLYYRYDYWGQGTQVTVSS", "polyreactivity (PSR sort gate)": "low polyreactivity"}
{"sequence": "QVQLVESGGGLVQAGGSLRLSCAASGRIFPRNTMGWYRQAPGKERELVAAISTRGGSTYYADSVKGRSTISRDNAKNNVYLQMNSLKPEDTAVYYCAAGRRFPAIYSTGNYWGQGTQVTVSS", "polyreactivity (PSR sort gate)": "high polyreactivity"}
{"sequence": "QVQLLESGGGLVQAGGSLRLSCAASGFTFLSNVMGRYRQAPGKERELVAGINFSGDGTYYADSVKGRFTISRDNAKNTVYLQMNSLKPEDTAVYYCAGDVEYYRDVPQQVYVSDDYWGQGTQVTVSS", "polyreactivity (PSR sort gate)": "low polyreactivity"}
{"sequence": "QVQLVESVGGLVQAGGSLRLSCAASGNTLVYYDMGWYRQAPGKERELVAAISWSTGSTYYADSVKGRFTISRDNAKNTVYLQMNSLKPEDTAVYYCAAEPELDEYEHDYWGQGTQVTVSS", "polyreactivity (PSR sort gate)": "low polyreactivity"}
{"sequence": "QVQLVESGGCLVQAGGSLRLSCAASGSTFGYNTMGWYRQAPGKERELDAAITGTGRTNYADSVKGRFTISRDNAKNNVYLQMYSLKPEDTAVYYCNARQAGTRYKYGYYGRYYWGHGTQVTVSS", "polyreactivity (PSR sort gate)": "high polyreactivity"}
{"sequence": "QVQLVESGGGLVQAGGSLRLSCAASGITFAAYAMGWYRQAPGKERELVAAISTSGDSTYYADSVKGRFTISRDNAKNTVYLQMNSLKPEDTAVYYCAARAVRLSSSKVDYWGQGTQVTVSS", "polyreactivity (PSR sort gate)": "high polyreactivity"}
{"sequence": "QVQLVESGGGLVQAGGSLRLSCSASGIIFDVNALGWYRQSPGKERELVADITYSVGSTSYADSVKGRFTISRDNAKNTVYLQMNSLKPEDTAVYYCAAVYSHSGGEGIKYDYWGQGTQVTVSS", "polyreactivity (PSR sort gate)": "low polyreactivity"}
{"sequence": "QGQLVESGGGLVQAGGSLRLSCAASGLIFYPNGMGWYREAPGKERELVAAITYSDGSTYYADSVKGRFTISRDNAKNTVYLQMNSLKAEDTAVYYCNRVTRWTYNYWGQGTQVTVSS", "polyreactivity (PSR sort gate)": "high polyreactivity"}
{"sequence": "QVQLVESAGGLVQAGVSLRLSCAASGFTFAQNVMGWYRQAPGKERELVAAISVSGGSTYYADSVKGRFTISRDNAKNTVYLQMNSLKPEDTAVYYCNAVAGVTKRVDLSRSGYWGLGTQVTVSS", "polyreactivity (PSR sort gate)": "high polyreactivity"}
{"sequence": "QVQLQERGGGLVQVRGSLRLSCAASGTIIIYGFMGWNRQAPGKERELVASINLGGITNYADSVTGRFTISRDNAKNTVYRQMISLKPEDNAVYYCAAYVVTGQNYGYWCQGTQVTVSS", "polyreactivity (PSR sort gate)": "low polyreactivity"}
{"sequence": "QVQLVESGGGLVQAGGSLRLSCAASGRIFGIYAMGWYRQAPGKERVLVAAISRSGGSTYYADSVKGRFTISRDNAKNTVYLQMNSLKPEDTAVYYCAADSRSWTGYYYWGQGTQVTVSS", "polyreactivity (PSR sort gate)": "high polyreactivity"}
{"sequence": "QVQLVESGGGLVQAGGSLRLSCAASGFTFGANVMGWYRQAPGKERELVAAITSSGGSTYYADSVKGRFTISRDKAKNTVYLQMYSLKPEDTAVYYCNRRRGAYYGYYWGQGTQVTVSS", "polyreactivity (PSR sort gate)": "high polyreactivity"}
{"sequence": "QVQLVESGGGLVQAGGSLRLRCAASGSIMGRYAMGWYRQAPGKERELVAAITSSGTRTYYPDSVKGRFTISRDNANNTVYLQMNSLKPEDTAVYYCAAYLAITRSYYIVPYDYWGQGTQVTVSS", "polyreactivity (PSR sort gate)": "high polyreactivity"}
{"sequence": "QVQLVDSGGGLVQAGGTLRLSCAASGRTIRYNAMAWYRQAPGKERELVAAITGSGGSTYYADSVKGRFTISRDNAKNTVYLQMNSLKPEDTAVYYCARDGYLVYYYDWSYPYDSWGQGTQVTVSS", "polyreactivity (PSR sort gate)": "low polyreactivity"}
{"sequence": "QVQLVESGGGLVQAGGSLRLSCAASGRTFKYNAMGWYRQAPGKERELVAAISSTGSTNYADSVKGRFTISRDNAKNTVYLQMNSLKPEDTAVYYCAASYFFVQWGWYYYWGQGTQVTVSS", "polyreactivity (PSR sort gate)": "low polyreactivity"}
{"sequence": "QVQLVESGGGLVQAGGSLRLSCAASGITFLVYVMGWYIQAPGKERELVAAISSGGSTYYADSVKGRFTISRDKAKNTVYLQMNSLKPEDTAVYYCAAERKLYGLYDYWGQGTQVTVSS", "polyreactivity (PSR sort gate)": "low polyreactivity"}
{"sequence": "QVQLVESGGGLVQAGGSLRLSCAASGSIFASYAMGWYRQAPGKERELVAAISRSGGSTYYADSVKGRFTISRDNAKNTVYLQMNSLKPEDTAVYYCATGKIREDDYWGQGTQVTVSS", "polyreactivity (PSR sort gate)": "high polyreactivity"}
